# Measurements from patent US20160228506A1, “Compositions and Formulations for Prevention and Reduction of Tumorigenesis, Cancer Cell Proliferation and Invasion, and Methods of Production and Use Thereof in Cancer Treatment” (PRONUTRIA, INC., priority 2013, published 2016).
# Residue numbers refer to the chain shown, from its start. In names and notes the source's numbering stands.
# B1: R42T: single amino acid mutant of SEQID-00338, position 42 (protein, listed as Saccharomyces cerevisiae)
# chain: MSSSESIRMVLIGPPGAGKGTQAPNLQERFHAAHLATGDMLTSQIAKGTQLGLEAKKIMDQGGLVSDDIMVNMIKDELTNNPACKNGFILDGFPRTIPQAEKLDQMLKEQGTPLEKAIELKVDDELLVARITGRLIHPASGRSYHKIFNPPKEDMKDDVTGEALVQRSDDNADALKKRLAAYHAQTEPIVDFYKKTGIWAGVDASQPPATVWADILNKLGKD
# modifications: source: /note="strain ATCC 204508 / S288c"
# B2: D91F: single amino acid mutant of SEQID-00338, magnesium ion binding site position 91 (protein, listed as Saccharomyces cerevisiae)
# chain: B1 chain with T42R, D91F
# modifications: source: /note="strain ATCC 204508 / S288c"
# B3: D91I: single amino acid mutant of SEQID-00338, position 91 (protein, listed as Saccharomyces cerevisiae)
# chain: B1 chain with T42R, D91I
# modifications: source: /note="strain ATCC 204508 / S288c"
# B4: Reduced and alkylated SEQID-00363: SEQID-00363 with disulfide bonds reduced and alkylated (protein)
# chain: ATLDSWLSNEATVARTAILNNIGADGAWVSGADSGIVVASPSTDNPDYFYTWTRDSGLVLKTLVDLFRNGDTSLLSTIENYISAQAIVQGISNPSGDLSSGAGLGEPKFNVDETAYTGSWGRPQRDGPALRATAMIGFGQWLLDNGYTSTATDIVWPLVRNDLSYVAQYWNQTGYDLWEEVNGSSFFTIAVQHRALVEGSAFATAVGSSCSWCDSQAPEILCYLQSFWTGSFILANFDSSRSGKDANTLLGSIHTFDPEAACDDSTFQPCSPRALANHKEVVDSFRSIYTLNDGLSDSEAVAVGRYPEDTYYNGNPWFLCTLAAAEQLYDALYQWDKQGSLEVTDVSLDFFKALYSDAATGTYSSSSSTYSSIVDAVKTFADGFVSIVETHAASNGSMSEQYDKSDGEQLSARDLTWSYAALLTANNRRNSVVPASWGETSASSVPGTCAATSAIGTYSSVTVTSWPSIVATGGTTTTATPTGSGSVTSTSKTTATASKTSTSTSSTSCTTPTAVAVTFDLTATTTYGENIYLVGSISQLGDWETSDGIALSADKYTSSDPLWYVTVTLPAGESFEYKFIRIESDDSVEWESDPNREYTVPQACGTSTATVTDTWR
# modifications: disulfides reduced and alkylated; Aspergillus niger
# B5: Heat-denatured SEQID-00363: SEQID-00363 30 g/L in 10% PBS rapidly heated to 95° C. (protein)
# chain: B4 chain
# modifications: heat-denatured; Aspergillus niger
# B6: SEQID-00485: nutritive polypeptide naturally produced in Chickpea, recombinantly expressed in E. coli (protein, listed as Cicer arietinum)
# chain: MTKTGYINAAFRSSRNNEAYLFINDKYVLLDYAPGTSNDKVLYGPSFVRDGYKSLAKTIFGTYGIDCSFDTEYNEAFIFYENFCARIDYAPHSDKDKIISGPKKIADMFPFFKGTVFENGIDAAFRSTKGKEVYLFKGDKYARIDYLTNRLVQNIKSISDGFPCLRGTIFEAGMDSAFASHKTNEAYLFKGEYYARINFTPGSTNDIMGGVKKTLDYWPSLRGIIPLE
# B7: SEQID-00298 (BS): nutritive polypeptide naturally produced in Cow (protein, listed as Bos taurus)
# chain: MGLSDGEWQLVLNAWGKVEADVAGHGQEVLIRLFTGHPETLEKFDKFKHLKTEAEMKASEDLKKHGNTVLTALGGILKKKGHHEAEVKHLAESHANKHKIPVKYLEFISDAIIHVLHAKHPSDFGADAQAAMSKALELFRNDMAAQYKVLGFHG
# B8: SEQID-00605: nutritive polypeptide naturally produced in Mushroom, recombinantly expressed in E. coli (protein, listed as Agaricus bisporus)
# chain: MLEFTLNDGNRIPAIAFGTGTALYNQDASAFVRLAIETGITHLDGAQMYENEETLGKGIKSSGKPRSELFITTKLHILKPGQTVRETLVESLGKIGVDYVDLFLIHDPTANRKEATLSEIWSQLEALKNEGLTKSIGVSNFKVEDLNEILPGAKIIPAVNQIEFHPYVLKAASPIIELCKAKGIIVASYGGQTPIVRATDGPLKDLLPKIRERLEQTRGSPVTEGQVLTKWLLQKNVIAISTSSKESRIKEFLSTVDVPDLTKQEIESIDNAGSTIHKRIYMKHIFNE
# modifications: source: /note="var. bisporus"; source: /note="strain H97 / ATCC MYA-4626 / FGSC 10389"
# notes: nutritive polypeptide naturally produced in Mushroom, recombinantly expressed in E. coli
# Columns and labels:
# [1] = tested on: SEQID-00338 kinase activity (AMP + ATP→ADP); assay: Kinase activity of SEQID-00338 (ADP-Glo Max Assay); assay type: biochemical; details: 7 μg/mL, 30 minute reaction at 30° C.
# Procedure: The ADP-Glo™ Max Assay was obtained from Promega (Catalog number V7001, Madison, Wis.). Adenosine Monophosphate was obtained from Sigma-Aldrich (Catalog number A1752, St. Louis, Mo.). 5× Kinase Buffer was prepared w/ 1.211 g Tris Base (Catalog number BP152-2, Fisher Bioreagents, Pittsburgh, Pa.), 692 μL 12% hydrochloric acid solution (Catalog number BDH3026-500MLP, VWR, Radnor, Pa.), 10.0 mL 500 mM magnesium chloride (Catalog number BP214-500, Fisher Bioreagents, Pittsburgh, Pa.) and the volume brought to 50 mL with MilliQ water and filtered through 0.22 μm PES filter (Catalog number SCGP00525, Millipore, Billerica, Mass.) into a sterile 50 mL tube.
# Twelve his-tag purified mutant proteins and the wild-type protein at 35 μg/mL in Tris buffer were serially diluted to 7.0 and 1.4 μg/mL. Prepared kinase reaction mix at 0.5 mM AMP/0.5 mM ATP to test for activity and at 0 mM AMP/0 mM ATP to assay background activity by diluting 5× Kinase Buffer with appropriate volumes of 10 mM AMP and 10 mM ATP in MilliQ water. Duplicate reactions were prepared by mixing 9 μL of the reaction mixture with 6 μL of diluted SEQID-00338, mixing by pipetting up and down and dispensing 5 μL into a 384-well white OptiPlate (PerkinElmer, Waltham, Mass.). An ADP standard curve was prepared by serially diluting 4 mM ADP in MilliQ water and adding kinase buffer to 1× for a standard at 0.0005, 0.001, 0.005, 0.01, 0.05, 0.1, 0.5, 1, 2, 3, and 4 mM ADP. The plate was covered with a foil plate seal and incubated at 30° C. for 30 min. Following the kinase reaction, 5 μL of ADP-Glo™ Reagent was added to each well. The plate was sealed with a foil plate seal and placed on a horizontal plate shaker at 450 rpm for 2 minutes at room temperature. The plate was removed from the plate shaker and incubated at room temperature for 40 minutes. The plate was then centrifuged for 15 seconds at 1109×rcf and 10 μL of ADP-Glo™ Max Detection Reagent was added. The plate was sealed with a foil plate seal and shaken on a horizontal plate shaker at 450 rpm at room temperature for 2 minutes. The plate was then removed from the plate shaker and incubated at room temperature for 60 minutes. The plate was centrifuged for 15 seconds at 1109×rcf and the luminescence read on an EnspireAlpha plate reader (PerkinElmer, Waltham, Mass.).
# The ADP standard curve was used to determine the concentration of ADP in sample wells in the presence or absence of substrate. Concentrations were determined by performing a non-linear 4 parameter logistic on the X=log(X) transformed ADP standard luminescence values. […] Where the background concentration of ADP in the absence of substrate was calculable the average of those values were subtracted from the calculated ADP concentration in the substrate incubated wells. Activity knock out was calculated by percentage activity relative to purified wild-type protein at the same concentration.
# Pancreatin = assay type: in vitro ADME, Porcine
# Procedure: Control samples were protease-free.
# Analyses were performed using an Agilent 1100 series system.
# [2] = Intact half-life during simulated gastric fluid (SGF) digestion; details: for Half-life: purified proteins, chip electrophoresis
# [3] = SGF digest of 168 nutritive polypeptide library, intact protein by LC-MS/MS; assay type: in vitro ADME; details: for % Intact Protein at 10 min: 168 nutritive polypeptide library SGF digest, LC-MS/MS spectral counts; for % Remaining at 10 min: 168 nutritive polypeptide library, LC-MS/MS
# How it was run: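 A 168-protein IMAC-purified recombinant library was digested in simulated gastric fluid and the 0 and 10 min samples were profiled by SDS-PAGE fractionation, in-gel trypsin digestion and nanoLC-MS/MS. Percent intact protein at 10 min is the ratio of spectral counts (t10/t0), summed over the peak fraction and two flanking fractions. Filters were 1% FDR and at least two unique peptides.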
# pH solubility = assay type: physicochemical; details: for pH Range where Protein is >80% detected as Soluble and A650 <1 OD: Low: lower pH; for pH Range where Protein is >80% detected as Soluble and A650 <1 OD: High: upper pH
# Procedure: pH Solubility. […] Protein was either lyophilized and then resuspended in buffer cocktail mixtures, or concentrated and then spiked into buffer cocktail mixtures at a final protein concentration of 5 to 30 mg/ml. As a control, protein was also dissolved in a solution of 8 M urea. Protein solutions were shaken for 10 min at room temperature. Turbidity of proteins was determined by measuring the absorbance of protein solutions at 650 nm. The protein solution was then centrifuged for 10 min at 1100×g to pellet undissolved or precipitated protein. The soluble protein fraction (supernatant) was sampled and protein concentration was measured by one or more of the following methods: Coomassie Plus Protein Assay (Pierce), Chip electrophoresis, gel electrophoresis, and/or absorbance at 280 nm. The pH range over which select proteins remained greater than 80% soluble as determined by Bradford and the A650 value are listed in Table E31C.
# [4] = Thermostability, temperature of aggregation (ProteoStat Thermal Shift); assay type: physicochemical; parameters: key to Tagg: temperature in °C
# How it was run: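 Protein at about 10 mg/ml in citric acid/dibasic sodium phosphate buffers spanning pH 2.8–7.1, with 1× ProteoStat TS detection reagent. Samples heated from 25 °C to 95 °C at 0.5 °C per 30 sec in a real-time PCR thermocycler. Aggregation followed by fluorescence through a Texas Red filter.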
# [5] = native and modified forms of SEQID-00363, gel electrophoresis
# [6] = SGF pH 1.5, pepsin:polypeptide 1:20 w/w, 37° C., intact protein
molecule,measurement,setting,value
B1,AVG percent activity relative to purified wild-type protein,[1],1.9%
B2,AVG percent activity relative to purified wild-type protein,[1],0.9%
B3,AVG percent activity relative to purified wild-type protein,[1],0.4%
B4,Free Leu (μM) at 120 min time point of Pancreatin digest,Pancreatin,598.1 µM
same,SGF Half-life (t½),[2]; [5],20.4 min
B5,Free Leu (μM) at 120 min time point of Pancreatin digest,Pancreatin,763.5 µM
same,SGF Half-life (t½),[2]; [5],20.4 min
B6,Free Leu (μM) at 120 min time point of Pancreatin digest,Pancreatin,764.9 µM
same,% Intact Protein at 10 min,[3],0%
same,% Remaining at 10 min,[3],0%
same,pH Range where Protein is >80% detected as Soluble and A650 <1 OD: Low,pH solubility,4.6
same,pH Range where Protein is >80% detected as Soluble and A650 <1 OD: Other,pH solubility; other pH,2.8
same,pH Range where Protein is >80% detected as Soluble and A650 <1 OD: High,pH solubility,7.1
same,Tagg,[4]; pH 5.0,31.5
same,Tagg,[4]; pH 5.6,34.5
same,Tagg,[4]; pH 6.0,36
same,Tagg,[4]; pH 6.5,36.5
same,Tagg,[4]; pH 7.1,36
same,SGF Half-life (t½),[2]; [6],0.5 min
same,Half-life,[2],0.5 min
B7,Free Leu (μM) at 120 min time point of Pancreatin digest,Pancreatin,1030.8 µM
same,SGF Half-life (t½),[2]; [6],0.1 min
B8,Free Leu (μM) at 120 min time point of Pancreatin digest,Pancreatin,937.1 µM
same,% Intact Protein at 10 min,[3],0%
same,% Remaining at 10 min,[3],0%
same,pH Range where Protein is >80% detected as Soluble and A650 <1 OD: Low,pH solubility,5.6
same,pH Range where Protein is >80% detected as Soluble and A650 <1 OD: High,pH solubility,7.1
same,Tagg,[4]; pH 4.6,40.5
same,Tagg,[4]; pH 5.0,33.5
same,Tagg,[4]; pH 5.6,37
same,Tagg,[4]; pH 6.0,44.5
same,Tagg,[4]; pH 6.5,38.5
same,Tagg,[4]; pH 7.1,39
same,SGF Half-life (t½),[2]; [6],0.2 min
same,Half-life,[2],0.2 min
